Paper PMC4552633

Legend:
[1] = molecular target: clathrin adaptor AP-1, endogenous in 293T cells (detected by its γ-adaptin subunit), O43747;Q9BXS5;P61966; assay: cross-linking co-immunoprecipitation (anti-HA IP), Western blot quantification; settings: read off a plot
[2] = molecular target: clathrin adaptor AP-2, endogenous in 293T cells (detected by its α adaptin subunit), O95782;Q96CW1;P53680; assay: as above; settings: read off a plot
[3] = 293T tetherin Y6,8A cells, PFA (0.05% w/v) cross-linking, 48 h post transfection, parent: est. 1.8
[4] = 293T tetherin cells, PFA (0.05% w/v) cross-linking, 48 h post transfection, parent: est. 1.5
[5] = 293T tetherin Y6,8A cells, PFA (0.05% w/v) cross-linking, 48 h post transfection, parent: est. 2.3
[6] = 293T tetherin cells, PFA (0.05% w/v) cross-linking, 48 h post transfection, parent: est. 0.9
[7] = 293T tetherin Y6,8A cells, DMSO, PFA (0.05% w/v) cross-linking, 48 h post transfection, parent: est. 2.5
[8] = 293T tetherin Y6,8A cells, DMSO, PFA (0.05% w/v) cross-linking, 48 h post transfection, parent: est. 1.7

Substance	response (% relative to input control) [1, 3]	response (% relative to input control) [1, 4]	response (% relative to input control) [2, 5]	response (% relative to input control) [2, 6]	response (% relative to input control) [1, 7]	response (% relative to input control) ([1]; parent: est. 0)	response (% relative to input control) [2, 8]	response (% relative to input control) ([2]; parent: est. 0)
HIV-1 NL4.3 Vpu-HA (codon optimized, pCR3.1 Vpu-HA) A14L; W22A	0	0.45	0	0				
HIV-1 NL4.3 Vpu-HA (codon optimized, pCR3.1 Vpu-HA) ELV	0	0.95	0	0	0	0	0	0
HIV-1 NL4.3 Vpu-HA (codon optimized, pCR3.1 Vpu-HA) N54H; E55G	0	0	0	0				
HIV-1 NL4.3 Vpu-HA (codon optimized, pCR3.1 Vpu-HA) S52A; S56A	0	1	0	0	0	0	0	0
HIV-1 NL4.3 Vpu-HA (codon optimized, pCR3.1 Vpu-HA) L41A; I42A; L45A; I46A	0	0.1	0	0				
